Experimental data as given in patent US20030186920A1.
Values belong to the molecule of their own block, whether it stands above or below them.

Tests used:
Assay in all cases: cell-based or functional assay
[1] = target: bovine Flk-1 (VEGFR-2), endogenous on bovine aortic endothelial cells (BAEC) (bovine)
[2] = target: T1, bovine Flt-1 (VEGFR-1), endogenous on bovine aortic endothelial cells (BAEC) (bovine)
T1 sequence: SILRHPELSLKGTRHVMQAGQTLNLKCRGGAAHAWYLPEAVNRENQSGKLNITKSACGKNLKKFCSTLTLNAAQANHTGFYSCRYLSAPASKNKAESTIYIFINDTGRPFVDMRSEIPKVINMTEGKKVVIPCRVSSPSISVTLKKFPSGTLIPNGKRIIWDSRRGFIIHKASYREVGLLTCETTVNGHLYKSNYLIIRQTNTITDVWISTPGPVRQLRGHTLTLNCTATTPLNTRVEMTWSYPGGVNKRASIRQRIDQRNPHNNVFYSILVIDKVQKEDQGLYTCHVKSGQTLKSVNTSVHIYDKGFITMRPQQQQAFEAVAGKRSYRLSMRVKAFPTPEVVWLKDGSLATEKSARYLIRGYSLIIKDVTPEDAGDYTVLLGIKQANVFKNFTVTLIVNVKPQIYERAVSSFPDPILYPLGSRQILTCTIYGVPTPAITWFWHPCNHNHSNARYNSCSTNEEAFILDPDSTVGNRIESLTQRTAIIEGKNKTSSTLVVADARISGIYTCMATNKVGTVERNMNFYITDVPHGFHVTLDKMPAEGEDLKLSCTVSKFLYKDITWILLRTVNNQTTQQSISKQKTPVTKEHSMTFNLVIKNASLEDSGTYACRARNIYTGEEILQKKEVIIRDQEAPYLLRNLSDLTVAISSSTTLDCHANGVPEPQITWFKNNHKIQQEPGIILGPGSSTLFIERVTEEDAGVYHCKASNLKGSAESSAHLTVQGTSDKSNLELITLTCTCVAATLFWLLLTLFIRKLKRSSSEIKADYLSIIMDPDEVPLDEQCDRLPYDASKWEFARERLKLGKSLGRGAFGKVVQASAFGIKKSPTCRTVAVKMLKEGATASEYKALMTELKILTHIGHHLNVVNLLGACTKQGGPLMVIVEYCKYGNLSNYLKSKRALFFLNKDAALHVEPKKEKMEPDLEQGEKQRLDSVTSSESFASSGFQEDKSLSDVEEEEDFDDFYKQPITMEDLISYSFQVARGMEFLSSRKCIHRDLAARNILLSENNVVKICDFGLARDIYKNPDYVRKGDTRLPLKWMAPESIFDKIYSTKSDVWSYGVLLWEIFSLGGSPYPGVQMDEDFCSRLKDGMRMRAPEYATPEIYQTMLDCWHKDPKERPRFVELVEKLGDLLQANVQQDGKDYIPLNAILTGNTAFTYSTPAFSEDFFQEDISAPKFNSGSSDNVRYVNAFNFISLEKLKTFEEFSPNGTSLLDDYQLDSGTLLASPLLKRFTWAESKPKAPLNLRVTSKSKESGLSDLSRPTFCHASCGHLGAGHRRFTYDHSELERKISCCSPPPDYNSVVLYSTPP

[3] = target: T1, bovine Flt-1 (VEGFR-1), endogenous on bovine aortic endothelial cells (BAEC) (bovine); remark: listed apart in the source

BAEC migration (modified Boyden chamber, 5 h), VEGF 2.5x10^-10 M (% increase over PBS-stimulated cells) [1]: 83
BAEC migration (modified Boyden chamber, 5 h), VEGF 10^-9 M (% increase over PBS-stimulated cells) [1]: 130
BAEC migration (modified Boyden chamber, 5 h), VEGF 10^-10 M (% increase over PBS-stimulated cells) [1]: 46
BAEC proliferation (cell count at 72 h), VEGF 2.5x10^-10 M (% increase over DMEM/1% FBS) [1]: 219
BAEC proliferation (cell count at 72 h), VEGF 10^-10 M (% increase over DMEM/1% FBS) [1]: 183
BAEC proliferation (cell count at 72 h), VEGF 10^-11 M (% increase over DMEM/1% FBS) [1]: 62
Flk-1 phosphorylation in BAEC stimulated with VEGF (10^-9 M), anti-phosphotyrosine Western blot of immunoprecipitated receptor (fold over PBS-treated cells) [1]: 13.2
PAF synthesis by BAEC (3H-acetate incorporation, 15 min), VEGF 10^-8 M (fold over PBS-treated cells) [1]: 35.9
PAF synthesis by BAEC (3H-acetate incorporation, 15 min), VEGF 10^-9 M (fold over PBS-treated cells) [1]: 20.4
PAF synthesis by BAEC (3H-acetate incorporation, 15 min), VEGF 10^-10 M (fold over PBS-treated cells) [1]: 7.2
Flt-1 phosphorylation in BAEC stimulated with VEGF (10^-9 M), anti-phosphotyrosine Western blot of immunoprecipitated receptor (fold over PBS-treated cells) [2]: 1.5
Molecule: human recombinant vascular growth factor, VEGF165 (PeproTech Inc.) (from UniProt P15692 27-191) (ligand)

PAF synthesis by BAEC (3H-acetate incorporation, 15 min), PlGF 10^-8 M (% increase over PBS-treated cells) [3]: 67
B1: human placenta growth factor, PlGF152 (R & D Systems) (ligand, UniProt P49763-3 19-170, looked up)
chain: LPAVPPQQWALSAGNGSSEVEVVPFQEVWGRSYCRALERLVDVVSEYPSEVEHMFSPSCVSLLRCTGCCGDENLHCVPVETANVTMQLLKIRSGDRPSYVELTFSQHVRCECRPLREKMKPERRRPKGRGKRRREKQRPTDCHLCGDAVPRR
